Test results as given in PMC6299498 (BMC Veterinary Research, 2018).

Biological target: T1, SLA-2*HB01 heavy chain (swine leukocyte antigen 2, haplotype HB01 allele), extracellular domain (Sus scrofa)
T1 construct: SLA-2 haplotype HB01 allele, swine MHC class I heavy chain, extracellular domain stated as 275 amino acids; also called heavy chain of SLA-2*HB01
T1 MHC heavy: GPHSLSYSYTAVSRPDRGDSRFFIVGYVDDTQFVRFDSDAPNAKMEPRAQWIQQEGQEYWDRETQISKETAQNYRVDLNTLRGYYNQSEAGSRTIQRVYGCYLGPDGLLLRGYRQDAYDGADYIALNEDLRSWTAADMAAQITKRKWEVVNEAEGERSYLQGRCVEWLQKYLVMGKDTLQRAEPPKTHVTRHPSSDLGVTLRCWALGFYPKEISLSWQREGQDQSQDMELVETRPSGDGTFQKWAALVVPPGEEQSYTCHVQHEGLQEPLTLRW
Assay: SEC
Details: both partners purified

B1: FMDV-AS64 CTL epitope (ALLRSATYY) from VP1 residues 64-72 of Asia 1 serotype foot-and-mouth disease virus (peptide)
peptide: ALLRSATYY
binding result: binds
